# Test: yeast display, Sf9 membrane polyspecificity reagent, FACS + sequencing; frameworks hold sequencing errors
# Procedure, shortened: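 Galactose-induced (36–48 hours) yeast carrying a synthetic nanobody display library were exposed to 10% biotinylated, detergent-solubilized Sf9 membrane reagent at 4 °C for 1 hour. FACS followed streptavidin microbead enrichment, using low and high (top ~1%) gates for expression (anti-HA) and reagent binding (streptavidin). Colony PCR, MiSeq 2 × 250 sequencing and CDR-length filtering followed. Labels for polyreactivity reflect the gate of origin.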
row,Sequence,polyreactivity (PSR sort gate)
1,QVQLVESGAGLVQAGGSLRLSCSASGRTFPGYAMGWYRQAPGKERELVATISSADSTNYADSVKGRFTISRDNGKNTVYLQMNSLKAEDTAVYYCAKRYGRNGAAAQYTGGYRYDYWGQGTQVSVSS,low polyreactivity
2,QVQLVESGARLVQAGGSLRLSCAASGRTFSTYTMGWYRQAPGKERELVAAITSSGGGTYYADSVKGRFTISRDTAKNTVFLQMNSLKPEDTAVYYCATVRTYRPPVRRGYWGQGTQVTVSS,high polyreactivity
3,QVQLVESGAVLVQAGGSLRLSCAASGGTFSGYTMGWYRQAPGKERELVAAITRSGSSTYYADSVKGRFTISRDNAKHTVYLQMNSLKPEDTAVSYCAATYPTSSSSYYNRYYWGQGTQVTVSS,high polyreactivity
4,QVQLVESGEGLVQAGGSLRLSCAASGRTFDRNTMGWYTQAPGKERELVAAISSSGGSTYYADSVKGRFTISRDNAKNTVYLQMNSLKPEDTAVYYCAVRSRQYFRYGYDYWGQGTQVTVSS,high polyreactivity
5,QVQLVESGEGLVQAGGSLRLSCAASGSTFTYNAMGWYRHAPGKERELVAAIDWDGDTTYYADSVKGRFTISRDNAKNTVYLQMNSLKPEDTAVYYCAARPKYPYYARYDYWGQGTQVTVSS,high polyreactivity
6,QVQLVESGGAFVQAGGTLRLICAASGRIFLYYAMGWYRHAPGKERELFAAIRISGGSTYYADSVKGRFTISRDNAKNTVYLQMNSLNAVDPAVYYCNADHKTIYPKYRGRFYYWGQGTQVTVTS,high polyreactivity
7,QVQLVESGGAIVQAGGSLRLICAASGSIFYIYAMGWYRQAPGKERELVASITFSGDITYYADSVKGRFTISRDNAKYTVYLQMNSLKPEDTAVYYCAADYHEQSYAVTYDYWGQGTKVTVSS,low polyreactivity
8,QVQLVESGGALFQAGGSLRLSCAASGRIFTIYASRWYRQAPGKATELVATISRRGGSTYYADSVKGRFTISRDNAKNNVYLQMNSLKPEVSAVYYCAADSVITWWAYDYWGQGTQVTVSS,high polyreactivity
9,QVQLVESGGALVQAGGRLRLSCAASGLTLHRYTMGWYRQAPGKERELVAVITYGGGNTYYADSVKGRFTISRDNAKNTVYLQMNSLKPEDNAVYYCAARYPPFYWYDYWGQGTQVSVSS,low polyreactivity
10,QVQLVESGGALVQAGGSIRISCAASGSIFRDYAMGWSRQAPGKERELVAVISIAGRTNYADSVKGRFTISRDNAKNTVYLQMKRLKPEDTAVYYCAADSAWYGYDYWGQGTQVTVSS,low polyreactivity
11,QVQLVESGGALVQAGGSLLLSCAASGSIFQPYAMGWYRQAPGKERELVAAITNGGSTYYADSVKGRFTISRDNAKNTVYLQMNSLNPEDTAVYYFAADVQSSHVYDYWGQGTQVTVSS,low polyreactivity
12,QVQLVESGGALVQAGGSLRLSCAASAITYRYYAMGWNRQAPGKERELVATITRSGGSTYYADSVKGRFTISRDNAKNTVYLQMNSLKPEDTAVYYCAKGLYSTRYYYWGQGTQVTVSS,high polyreactivity
13,QVQLVESGGALVQAGGSLRLSCAASGFIFYSYAMGWYRHAPGKETELVAAITEDGDSTYYADSVKGRFTISRDNAKNTVYLQMNSLKPEDSAVYYCNTDLTFNGTSGDYDYWGQGTLVTVSS,low polyreactivity
14,QVQLVESGGALVQAGGSLRLSCAASGNTFQRYTMGWYRQAPGKERELVAAITWSGGNTYYADSVKGRFTISRDNAKNSVYLQMNSLKPEDTAVYDCNADYPTTAYDYWGQGTQVTVSS,low polyreactivity
15,QVQLVESGGALVQAGGSLRLSCAASGRIFRGYAMGWYRQAPGKERELVAAISSRGSRTYYADSVKGPFTISRDNAKNTVYLQMNSLKPEDTAVYYCAADVPGVTTSYAPYDSEYWGQGSQVTVSS,high polyreactivity
16,QVQLVESGGALVQAGGSLRLSCAASGRIFWDYVMGWYRQAPGKEREFVAAISLDGNITYYADSVKGRFTISRDNAKNTVYLQMNSLKPEDTAVFYCAADQYFFFRARGYDYWGQGTQVTVSS,low polyreactivity

row,Sequence,polyreactivity (PSR sort gate)
1,QVQLVESGGALVQAGGSLRLSCAASGSIFDDNAMGWYRQAPGKERELVAAITGSGGRTYYADSVKGRFTISRDNAQNTVDLQMNSLKPEDTAVYYCAAQGAYNYFNAWYGYEYWGQGTQVTVSS,high polyreactivity
2,QVQLVESGGALVQAGGSLRLSCAASGSIFGFYMGWYRQAPGKERELVAAISGSGGNTYYADSVKGRFTISRDNAKNTVYLQMNSLKPEDTSVYYCAAERWDLWLLYDYWGQGTQVTVSS,high polyreactivity
3,QVQLVESGGALVQAGGSLRLSCAASGSIFIHYAMGWSRQAPGKERELVAAISRTGSTYYADSVKGRFTISRDNAKNTVYLQMNSLKPLDTAVYYCAKRISTRRYDFWGQGTQVTVSS,low polyreactivity
4,QVQLVESGGALVQAGGSLRLSCAASGSIFLFNTMGWYRQAPGKETELVAVISGGGITYYADSVKGRFTISRDNAKNTVYLQMNSLKPEDTAVYYCAADGGYWSQYDYWGQGTQVTVSS,low polyreactivity
5,QVQLVESGGALVQAGGSLRLSCAASGSIFSEYAMGWYRQAPGKERELVAAISRSGGTTYYADSVKGRFSISRDNAKNTVYLQMNSLKPEDTAVYYCAARYFRGSYPMGYWGQGTQVTVSS,high polyreactivity
6,QVQLVESGGALVQAGGSLRLSCAASGSIFTGYAMGWYRQAPGKERELVAAISSRGGSTYYADSVKGRFTISRDNATNTVYLQMNSLKPEDTAVYYCNAVYSGRFLRRDYWGQGTQVTVSS,high polyreactivity
7,QVQLVESGGALVQAGGSLRLSCAASGSIFVSNAMGWYRQAPGKERELVAAISQSGGSTYYADSVKGRFTISRDNAKNTVYLQMNSLKPEDTAVYYCATPIRSGFRIYDYWGQGTQVNVSS,low polyreactivity
8,QVQLVESGGALVQAGGSLRLSCAASGSTFAYNAMGWYRQAPVKERELVAAITWNGGDTYYADSVKGRFTISRDNAKNTVYLQMNSLKPEDTAVYYCAAEDTYYRDSDYWGQGTQVTVSS,low polyreactivity
9,QVQLVESGGALVQAGGSLRLSCAASGSTFFKYGMGWYRQAPGKERELDATISSRGGNTSYADSVKGRFTISRDNAKNTVYLQMNSLKPEDTAVYYCNAGGDEPVYGSGYDYWGQGTQVTVSS,low polyreactivity
10,QVQLVESGGALVQAGGSLRLSCAASGSTFKVYAMGWYRQAPGKERELVAAISFSGGTTYYADSVNGRFTISRDYAKNTVSLQRNSLKPEDTAVFYCAADGSTWYSYYYWGLGTQVTVSS,high polyreactivity
11,QVQLVESGGALVQAGGSLRLSCAASGSTFLGYTMGWYRQAPGKERELVAAITSSGGRTYYADSVKGRFTISRDNAKYTVYLQMNSLIPEDTAVYYCATREYYPYSTRYSISYDYWGQGTQVTVSS,high polyreactivity
12,QVQLVESGGALVQAGGSLRLSCAASGSTIRDYAMGWYRQAPRKERELVAVIDNSGGRTYYADSVKGRFTISRDNAKNTVYLQMNSLKPEDTAVYYCNAYAYPFRGGYWGQGTQVTVSS,high polyreactivity
13,QVQLVESGGALVQAGGSLRLSSAASGSIFGSNGIGSYRPAPGKERELVAAITRSGGSTRYADSVKGRFTISRDNAKNTVYLQMNSLKPEDTAVYYCAKYDTSTGYDYWGQGTQVTVSS,high polyreactivity
14,QVQLVESGGALVQAGGSLRLSSAASGSTFYLNAMGWYRQAPGKERELVAAITVSGGSTYYADSVKGRFTISRDNAKNTVYLQMNSLKPEDTAVYYCARELLSPTYQRWYYYWGQGTQVTVSS,low polyreactivity
15,QVQLVESGGALVQAGGSLRLTCAASGRTFYYYAKGWYRPAPGTERELVAAISCSGGRTYYADSVKGRFTISRDNANDTVYVPMNSLKPEDTAVFYCYAEPPSGYTVSSGGEMDYWGQGTQVTVSS,low polyreactivity
16,QVQLVESGGALVQAGGTRRLSCAASASTYPYAMGWYRQDPAKERELVAAITWSGGNTYFADSVKGRFTISRDNAKNSVYLQMNSMKPEDTAFYYCAALIGYRVFRYNYWGQGTQLTVSS,high polyreactivity
